The results in this text go back to US20230038638A1, “COMPLEMENT FACTOR I-RELATED COMPOSITIONS AND METHODS” (published 2023).

Changes are numbered by the printed parent chain.

The target in assay [1] is T1, human C4b (human) (UniProt P0C0L5).
T1 sequence: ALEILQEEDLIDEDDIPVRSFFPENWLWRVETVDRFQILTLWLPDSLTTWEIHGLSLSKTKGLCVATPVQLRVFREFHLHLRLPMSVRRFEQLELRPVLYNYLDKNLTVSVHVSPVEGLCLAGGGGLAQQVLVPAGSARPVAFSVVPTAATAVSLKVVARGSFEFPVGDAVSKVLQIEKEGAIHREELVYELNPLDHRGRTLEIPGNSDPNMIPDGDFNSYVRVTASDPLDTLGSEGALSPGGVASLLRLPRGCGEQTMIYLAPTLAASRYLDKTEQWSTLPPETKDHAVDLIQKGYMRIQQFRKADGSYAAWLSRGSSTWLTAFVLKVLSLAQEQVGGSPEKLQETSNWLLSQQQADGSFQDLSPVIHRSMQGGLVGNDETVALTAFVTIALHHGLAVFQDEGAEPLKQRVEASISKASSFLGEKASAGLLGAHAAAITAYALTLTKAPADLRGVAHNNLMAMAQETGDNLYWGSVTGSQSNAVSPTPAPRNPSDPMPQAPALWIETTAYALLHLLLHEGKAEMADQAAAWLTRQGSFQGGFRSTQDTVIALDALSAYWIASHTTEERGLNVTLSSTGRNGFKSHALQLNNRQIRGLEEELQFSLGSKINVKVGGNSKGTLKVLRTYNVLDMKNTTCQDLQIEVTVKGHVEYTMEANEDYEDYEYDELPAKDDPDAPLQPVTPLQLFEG

For assay [2], the target named is T2, human C4b (human) (UniProt P0C0L4).
T2 sequence: T1 sequence with T151A, G317D, L364P, S365C, I368L, H369D, S420N, A451V, R454L, A530S

Assay [3] has as its target soluble human C3b (human) (UniProt P01024).
In assay [4] the target is T2, human C4b (human). The source holds these as a separate data set.
Assay [5] addresses soluble human C3b (human) (UniProt P01024). This is another data set of the same source.
Assay [6] concerns the target T1, human C4b (human). This is another data set of the same source.

In turn, “CFI-HSA variant D425K; E457G; E461Q; N531G (enzyme)” came in with a C4b Screen Ref Fold (fold relative to CFI-HSA wild type) with human C4b (human) [1] of 3.28. In the assay with human C4b (human) [2], the C4b Screen Ref Fold (fold of CFI-HSA wild type) was 4.26. Also, in assay [3], the iC3b Screen Ref Fold (fold of CFI-HSA wild type) was 2.07 and the iC3b Screen Ref Fold (fold relative to CFI-HSA wild type) worked out at 0.09. Besides, the C4c EC50 (nM) in the assay with human C4b (human) [4] was determined as 6 nM. In assay [5], the iC3b EC50 was 2.5 nM.
With CFI-HSA variant D425K; E530F (enzyme), the C4b Screen Ref Fold (fold of CFI-HSA wild type) with human C4b (human) [2] is 0.08. Further, the iC3b Screen Ref Fold (fold of CFI-HSA wild type) in assay [3] worked out at 2.17. This substance also showed a C4c EC50 with human C4b (human) [6] greater than 1000 nM. The substance further returned an iC3b EC50 in assay [5] of 5.8 nM.
For “CFI-HSA variant D425K; E530F; E457G; E461Q; N531G (enzyme)”, in that order: 4.4, 1.08, 6.4 nM and 3.4 nM.
On to CFI-HSA variant D425K; P558S (enzyme), for which the C4b Screen Ref Fold (fold of CFI-HSA wild type) with human C4b (human) [2] came out at 0.77. Besides, the iC3b Screen Ref Fold (fold of CFI-HSA wild type) in assay [3] was 2.11. Besides, in the assay with human C4b (human) [6], the C4c EC50 was found to be 153 nM. In assay [5], the iC3b EC50 amounted to 7 nM.
For CFI-HSA variant D425K; Y408M (enzyme), the C4b Screen Ref Fold (fold of CFI-HSA wild type) in the assay with human C4b (human) [2] amounted to 0.19. The iC3b Screen Ref Fold (fold of CFI-HSA wild type) in assay [3] was found to be 1.88. In the assay with human C4b (human) [6], this substance displayed a C4c EC50 greater than 1000 nM. Further, the iC3b EC50 in assay [5] stood at 9.4 nM.
In the case of “CFI-HSA variant D425K; Y408M; F537K (enzyme)”, the C4b Screen Ref Fold (fold of CFI-HSA wild type) with human C4b (human) [2] was 0.09. Besides, the iC3b Screen Ref Fold (fold of CFI-HSA wild type) in assay [3] is 1.52. In the assay with human C4b (human) [6], this substance gave a C4c EC50 greater than 1000 nM. Moreover, the iC3b EC50 in assay [5] worked out at 10.8 nM.
For the substance “CFI-HSA variant D425K; Y408M; K504R (enzyme)”, the C4b Screen Ref Fold (fold of CFI-HSA wild type) with human C4b (human) [2] was 0.1. In addition, in assay [3], the iC3b Screen Ref Fold (fold of CFI-HSA wild type) was 1.57. In the assay with human C4b (human) [6], the C4c EC50 was greater than 1000 nM. Further, the iC3b EC50 in assay [5] was 14.6 nM.
For “CFI-HSA variant D425R; E530F; E457G; E461Q; N531G (enzyme)”, in that order: 4.48, 0.99, 6.2 nM and 3.2 nM.
In the case of “CFI-HSA variant D425R; E530F; P558G; E457G; E461Q; N531G (enzyme)”, the C4b Screen Ref Fold (fold of CFI-HSA wild type) in the assay with human C4b (human) [2] worked out at 4.13. Besides, the iC3b Screen Ref Fold (fold of CFI-HSA wild type) in assay [3] was 0.87. Further, in the assay with human C4b (human) [6], the C4c EC50 stood at 5 nM.
Take “CFI-HSA variant D425R; P558S; E457G; E461Q; N531G (enzyme)”: in the assay with human C4b (human) [2], the C4b Screen Ref Fold (fold of CFI-HSA wild type) was 4.41. Besides, in assay [3], the iC3b Screen Ref Fold (fold of CFI-HSA wild type) was 1.29. For the same substance, in the assay with human C4b (human) [6], the C4c EC50 amounted to 4.6 nM. In addition, in assay [5], the iC3b EC50 stood at 4 nM.
Take “CFI-HSA variant E457G; E461Q; N422K (enzyme)”: in the assay with human C4b (human) [2], the C4b Screen Ref Fold (fold of CFI-HSA wild type) amounted to 3.61. Further, in assay [3], the iC3b Screen Ref Fold (fold of CFI-HSA wild type) was 2.37. The same substance showed a C4c EC50 with human C4b (human) [6] of 17.2 nM. The substance also registered an iC3b EC50 in assay [5] of 3.5 nM.
In the same order, the values of “CFI-HSA variant E457G; E461Q; N422K; T377G (enzyme)” are 4.28, 1.74, 5 nM and 2.2 nM.
Take “CFI-HSA variant E457G; N422K; T377G (enzyme)”: the C4b Screen Ref Fold (fold of CFI-HSA wild type) in the assay with human C4b (human) [2] was 4.25. Also, the iC3b Screen Ref Fold (fold of CFI-HSA wild type) in assay [3] is 2.99. The C4c EC50 in the assay with human C4b (human) [6] was 7.5 nM. The same substance registered an iC3b EC50 in assay [5] of 3.5 nM.
In the same order, the values of “CFI-HSA variant E461Q; N422K; T377G (enzyme)” are 3.96, 2.75, 7.9 nM and 3.6 nM.
Regarding “CFI-HSA variant E530F; P558S; E457G; E461Q; N531G (enzyme)”, in the assay with human C4b (human) [6], the C4c EC50 was 9.1 nM. Also, the iC3b EC50 in assay [5] was 4.8 nM.
Consider “CFI-HSA variant K504R; D425R; E530F; E457G; E461Q; N531G (enzyme)”, for which the C4b Screen Ref Fold (fold of CFI-HSA wild type) in the assay with human C4b (human) [2] was 4.2. In addition, the iC3b Screen Ref Fold (fold of CFI-HSA wild type) in assay [3] is 1.18. This substance registered a C4c EC50 with human C4b (human) [6] of 7.4 nM.
For “CFI-HSA variant K504R; D425R; P558G; E457G; E461Q; N531G (enzyme)”, in that order: 4.14, 1.58 and 4.8 nM.
In the same order, the values of “CFI-HSA variant K504R; E530F; P558G; E457G; E461Q; N531G (enzyme)” are 3.96, 1.77 and 8.2 nM.
CFI-HSA variant N422K; E461Q (enzyme): in the assay with human C4b (human) [2], the C4b Screen Ref Fold (fold of CFI-HSA wild type) came to 2.54. Besides, the iC3b Screen Ref Fold (fold of CFI-HSA wild type) in assay [3] was 2.67. For the same substance, in the assay with human C4b (human) [6], the C4c EC50 was determined as 51.1 nM. The iC3b EC50 in assay [5] came out at 4.1 nM.
For “CFI-HSA variant N531G; E457G; N422K; T377G (enzyme)”, in that order: 4.39, 1.28, 4.2 nM and 3.2 nM.
In the case of “CFI-HSA variant N531G; E457G; T377G (enzyme)”, in the assay with human C4b (human) [2], the C4b Screen Ref Fold (fold of CFI-HSA wild type) was determined as 4.33. In assay [3], the iC3b Screen Ref Fold (fold of CFI-HSA wild type) worked out at 1.54. Besides, the C4c EC50 in the assay with human C4b (human) [6] worked out at 2.9 nM. Further, in assay [5], the iC3b EC50 was 4.5 nM.
Take “CFI-HSA variant N531G; E461Q; N422K (enzyme)”: the C4b Screen Ref Fold (fold of CFI-HSA wild type) in the assay with human C4b (human) [2] was 4.01. In addition, the iC3b Screen Ref Fold (fold of CFI-HSA wild type) in assay [3] turned out to be 1.81. In addition, in the assay with human C4b (human) [6], the C4c EC50 is 7.2 nM. For the same substance, in assay [5], the iC3b EC50 was 3.7 nM.
In the same order, the values of “CFI-HSA variant N531G; E461Q; N422K; T377G (enzyme)” are 4.24, 1.7, 5 nM and 2.4 nM.
In the same order, the values of “CFI-HSA variant N531G; E461Q; T377G (enzyme)” are 4.1, 2.28, 5 nM and 4.9 nM.
For “CFI-HSA variant N531G; N422K; T377G (enzyme)”, in that order: 3.88, 2.74, 6.8 nM and 3.3 nM.
Regarding “CFI-HSA variant R557A; N531D; Y403F; K504Y (enzyme)”, the C4b Screen Ref Fold (fold of CFI-HSA wild type) in the assay with human C4b (human) [2] was 3.81. For the same substance, the iC3b Screen Ref Fold (fold of CFI-HSA wild type) in assay [3] was 0.11. This substance gave a C4c EC50 with human C4b (human) [6] of 38.6 nM. The substance also registered an iC3b EC50 in assay [5] of 156 nM.
In the same order, the values of “CFI-HSA variant R557A; N531G; Y403F; K504Y; E457G; E461Q (enzyme)” are 4.28, 0.36, 22.4 nM and 38.2 nM.
Consider CFI-HSA variant R557A; N531M (enzyme), for which, in the assay with human C4b (human) [2], the C4b Screen Ref Fold (fold of CFI-HSA wild type) came to 2.91. Besides, the iC3b Screen Ref Fold (fold of CFI-HSA wild type) in assay [3] is 0.09. In addition, in the assay with human C4b (human) [6], the C4c EC50 came to 78.7 nM. In assay [5], this substance displayed an iC3b EC50 of 288 nM.
Regarding CFI-HSA variant R557K; N531M (enzyme), the C4b Screen Ref Fold (fold of CFI-HSA wild type) with human C4b (human) [2] is 2.93. Besides, the iC3b Screen Ref Fold (fold of CFI-HSA wild type) in assay [3] amounted to 0.41. The substance further showed a C4c EC50 with human C4b (human) [6] of 124 nM.
Take CFI-HSA variant Y563H (enzyme): the C4b Screen Ref Fold (fold of CFI-HSA wild type) with human C4b (human) [1] turned out to be 0.65. In the assay with human C4b (human) [2], this substance registered a C4b Screen Ref Fold (fold of reference) of 1.03. Also, in assay [3], the iC3b Screen Ref Fold (fold of CFI-HSA wild type) worked out at 0.73 and the iC3b Screen Ref Fold (fold of reference) came out at 1.4. Also, the C4c EC50 (nM) in the assay with human C4b (human) [4] came to 855 nM. The substance further registered an iC3b EC50 in assay [5] of 24.6 nM.
